Measured values from article PMC2565473, “A Ligand Peptide Motif Selected from a Cancer Patient Is a Receptor-Interacting Site within Human Interleukin-11” (PLoS ONE, 2008).
Bridges are numbered along the chain shown (N, C = ends). Where no end group is shown, it is not given here.

B4: IL-11Rα (recombinant, extracellular domain fused to the Fc region of human IgG) (Fc fusion, UniProt Q14626 24-370, looked up)
chain: SPCPQAWGPPGVQYGQPGRSVKLCCPGVTAGDPVSWFRDGEPKLLQGPDSGLGHELVLAQADSTDEGTYICQTLDGALGGTVTLQLGYPPARPVVSCQAADYENFSCTWSPSQISGLPTRYLTSYRKKTVLGADSQRRSPSTGPWPCPQDPLGAARCVVHGAEFWSQYRINVTEVNPLGASTRLLDVSLQSILRPDPPQGLRVESVPGYPRRLRASWTYPASWPCQPHFLLKFRLQYRPAQHPAWSTVEPAGLEEVITDAVAGLPHAVRVSARDFLDAGTWSTWSPEAWGTPSTGTIPKEIPAWGQLHTQPEVEPQVDSPAPPRPSLQPHPRLLDHRDSVEQVAVLA
notes: human interleukin-11 receptor alpha, extracellular domain; The methods of the NMR and of the proliferation assay name only 'IL-11Rα' or 'human sIL-11Rα'; also called IL-11 receptor α; sIL-11Rα; source: bought: R&D Systems

Experiments:
[1] = target: B4; test: phage binding assay; alanine-scanning phage on immobilized IL-11Rα, done as a1; result given as grade of the ratio binding to IL-11Rα / binding to BSA; in duplicate, repeated at least four times; conditions: one partner purified
[2] = target: B4; test: NMR titration; 1D-1H and 2D-1H TOCSY/NOESY at 600 MHz; IL-11Rα 6 µM, peptide up to 400 µM (molar excess ∼16-, 33- and 66-fold); 50 mM sodium phosphate, 5 mM sodium azide, 10% D2O; 25°C; conditions: both partners purified
GST-IL-11 R113A (human) = GST-IL-11 R113A (human) (UniProt P20809); test: ELISA; GST fusion proteins coated overnight on 96-well plates at 5 µg/ml, blocked with 3% BSA in PBS; IL-11Rα (1 µg/ml) incubated for 2 h; detected with anti-human Fc HRP-conjugated antibody
GST-IL-11 G115A = target: T1, GST-IL-11 G115A (human, UniProt P20809 22-199, G115A); test: as above; conditions: both partners purified
T1 construct: human interleukin-11, open reading frame in pGEX4T-1, alanine mutant made on the GST-IL-11 plasmid; As m7 with the mutation; also called Gly^115 mutant; source: E. coli BL21, purified from inclusion bodies (solubilized in 6 M guanidine-HCl)
T1 sequence (looked up): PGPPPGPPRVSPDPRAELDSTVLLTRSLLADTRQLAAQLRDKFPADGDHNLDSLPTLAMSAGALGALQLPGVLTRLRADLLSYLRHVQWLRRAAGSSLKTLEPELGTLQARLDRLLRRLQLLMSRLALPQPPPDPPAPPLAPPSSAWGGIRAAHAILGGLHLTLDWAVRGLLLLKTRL

GST-IL-11 G116A = target: T2, GST-IL-11 G116A (human, UniProt P20809 22-199, G116A); test: as above; conditions: both partners purified
T2 construct: human interleukin-11, open reading frame in pGEX4T-1, alanine mutant made on the GST-IL-11 plasmid; As m7 with the mutation; also called Gly^116 mutant; source: E. coli BL21, purified from inclusion bodies (solubilized in 6 M guanidine-HCl)
T2 sequence (looked up): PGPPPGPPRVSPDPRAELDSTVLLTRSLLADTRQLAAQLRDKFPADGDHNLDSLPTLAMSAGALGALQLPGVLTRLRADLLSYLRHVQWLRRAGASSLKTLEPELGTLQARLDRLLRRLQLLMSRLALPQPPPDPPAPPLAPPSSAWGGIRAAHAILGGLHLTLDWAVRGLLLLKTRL

GST-IL-11 S117A = target: T3, GST-IL-11 S117A (human, UniProt P20809 22-199, S117A); test: as above; conditions: both partners purified
T3 construct: human interleukin-11, open reading frame in pGEX4T-1, alanine mutant made on the GST-IL-11 plasmid; As m7 with the mutation; also called Ser^117 mutant; source: E. coli BL21, purified from inclusion bodies (solubilized in 6 M guanidine-HCl)
T3 sequence (looked up): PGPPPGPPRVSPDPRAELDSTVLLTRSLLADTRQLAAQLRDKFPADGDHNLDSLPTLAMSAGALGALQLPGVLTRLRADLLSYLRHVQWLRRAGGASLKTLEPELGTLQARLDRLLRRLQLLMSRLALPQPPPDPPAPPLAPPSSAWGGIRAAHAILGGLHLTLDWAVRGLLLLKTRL

GST-IL-11 R112A = target: T4, GST-IL-11 R112A (human, UniProt P20809 22-199, R112A); test: as above; conditions: both partners purified
T4 construct: human interleukin-11, open reading frame in pGEX4T-1, alanine mutant made on the GST-IL-11 plasmid; As m7 with the mutation; also called Arg^112 mutant; source: E. coli BL21, purified from inclusion bodies (solubilized in 6 M guanidine-HCl)
T4 sequence (looked up): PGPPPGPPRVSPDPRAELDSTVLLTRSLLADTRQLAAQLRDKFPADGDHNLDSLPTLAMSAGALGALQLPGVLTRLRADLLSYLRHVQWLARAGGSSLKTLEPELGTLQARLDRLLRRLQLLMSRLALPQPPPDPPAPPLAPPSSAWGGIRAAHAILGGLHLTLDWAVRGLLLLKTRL

B1: CGARAGGSC phage (Arg^3 to Ala mutant of the … phage) (peptide)
peptide: CGARAGGSC
notes: source: phage display, cloned into SfiI-digested fUSE5 vector
[1]
  % reduction of binding relative to the … phage: > 70%

B2: CGRRAAGSC phage (Gly^6 to Ala mutant of the … phage) (peptide)
peptide: CGRRAAGSC
notes: as for B1
[1]
  % reduction of binding relative to the … phage: > 70%

B3: synthetic cyclic peptide CGRRAGGSC (peptide)
peptide: CGRRAGGSC
modifications: disulfide 1-9
notes: peptide selected from a combinatorial phage library in a cancer patient; RRAGGS corresponds to residues 112-117 of human IL-11; also called IL-11-like peptide; source: synthetic peptide, synthesized and cyclized at AnaSpec
[2]
  binding result: binds

## B4
GST-IL-11 R113A (human)
  % binding inhibition relative to wild-type IL-11: 86%
GST-IL-11 G115A
  % binding inhibition relative to wild-type IL-11: 71%
GST-IL-11 G116A
  % binding inhibition relative to wild-type IL-11: 29%
GST-IL-11 S117A
  % binding inhibition relative to wild-type IL-11: 86%
GST-IL-11 R112A
  % binding inhibition relative to wild-type IL-11: 43%
